Laboratory results taken from publication PMC10883266, “TTLL12 is required for primary ciliary axoneme formation in polarized epithelial cells” (EMBO Reports, 2023).

How the values were obtained:
[1] = target: recombinant 6His-TTLL12 (human) (UniProt Q14166); assay: pull-down; 10 μg (0.18 μM) untagged porcine brain tubulin alone or with 10 μg 6His-TTLL12 in 20 mM HEPES pH 7.4, 150 mM KCl, overnight at 4 °C to prevent polymerization; Ni beads; washes with 300 mM KCl, 0.1% Triton X-100; Coomassie blue staining
recombinant GST-Rab19 = target: T1, recombinant GST-Rab19 (UniProt A4D1S5 1-217); assay: pull-down; 10 μg GST-Rab19 loaded with GDP or GMP-PNP + 10 μg 6His-TTLL12 in 20 mM HEPES pH 7.4, 150 mM NaCl, 1% BSA, 1 h room temperature; glutathione beads; washes with 300 mM NaCl, 0.1% Triton X-100; Coomassie blue staining; settings: both partners purified
T1 construct: small GTPase Rab19; loaded with GDP or GMP-PNP before the assay; Loaded with GDP or with GMP-PNP (non-hydrolyzable GTP analog); also called GST-Rab19 (GDP); GST-Rab19 (GMP-PNP); source: E. coli BL21 Codon Plus, purified as previously described (Jewett et al, 2021); not shown: GST, N-terminal, kept
T1 sequence (looked up): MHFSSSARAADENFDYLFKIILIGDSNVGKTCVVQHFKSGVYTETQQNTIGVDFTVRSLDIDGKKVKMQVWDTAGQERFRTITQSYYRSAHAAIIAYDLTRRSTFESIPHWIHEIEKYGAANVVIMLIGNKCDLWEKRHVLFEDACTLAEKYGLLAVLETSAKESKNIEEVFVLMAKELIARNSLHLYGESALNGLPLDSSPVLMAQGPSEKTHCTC

untagged purified porcine brain tubulin (α/β-tubulin heterodimer) (from UniProt P02554 1-445) (complex)
fold increase in tubulin co-precipitation with Ni beads over tubulin alone [1]: 3 fold

B1: recombinant 6His-TTLL12 (natural protein, human, UniProt Q14166 1-644, looked up)
chain: MEAERGPERRPAERSSPGQTPEEGAQALAEFAALHGPALRASGVPERYWGRLLHKLEHEVFDAGEVFGIMQVEEVEEEEDEAAREVRKQQPNPGNELCYKVIVTRESGLQAAHPNSIFLIDHAWTCRVEHARQQLQQVPGLLHRMANLMGIEFHGELPSTEAVALVLEEMWKFNQTYQLAHGTAEEKMPVWYIMDEFGSRIQHADVPSFATAPFFYMPQQVAYTLLWPLRDLDTGEEVTRDFAYGETDPLIRKCMLLPWAPTDMLDLSSCTPEPPAEHYQAILEENKEKLPLDINPVVHPHGHIFKVYTDVQQVASSLTHPRFTLTQSEADADILFNFSHFKDYRKLSQERPGVLLNQFPCENLLTVKDCLASIARRAGGPEGPPWLPRTFNLRTELPQFVSYFQQRERWGEDNHWICKPWNLARSLDTHVTKSLHSIIRHRESTPKVVSKYIESPVLFLREDVGKVKFDIRYIVLLRSVRPLRLFVYDVFWLRFSNRAFALNDLDDYEKHFTVMNYDPDVVLKQVHCEEFIPEFEKQYPEFPWTDVQAEIFRAFTELFQVACAKPPPLGLCDYPSSRAMYAVDLMLKWDNGPDGRRVMQPQILEVNFNPDCERACRYHPTFFNDVFSTLFLDQPGGCHVTCLV
notes: Tubulin Tyrosine Ligase-Like 12 (TTLL12), human cDNA (pLVX304-hTTLL12); the form rests on the printed cloning primers; also called Tubulin Tyrosine Ligase-Like 12; source: Sf9 cells (baculovirus, pFastBac HTA), purified (nickel beads, dialysed into PBS with 1 mM DTT); not shown: 6His, …
fold increase in TTLL12 binding over a GST-only control (recombinant GST-Rab19): ~5 fold
